Molecular target: melanoma-associated antigen 3 (MAGE-A3) peptide presented by HLA-A*01:01 (human | )
Test: SPR

Kd: 29 nM
B1: mage-513, purified soluble protein (designed binder)
chain: LTVEEAIRLLLETQRRYPELGPEERQVADGALRVASLLLDIIATRRLLGDDDKELEKQLLKRIERLFTAPLPERRRLVEELEEPVLEEAAQAARELVKREQQ
modifications: heavy chain HLA-A*01:01 ectodomain taken by convention from the MAGE-A3/HLA-A1 structure 5BRZ (candidate P04439 is a different allele, A*03:01)
